{
  "source": "paper PMC3408954",
  "key": {"[1]": {"molecular_target": "T1, human chemokine receptor CXCR4 fused to the N-terminus of GFP or TagRFP (human), P61073", "T1 chain": "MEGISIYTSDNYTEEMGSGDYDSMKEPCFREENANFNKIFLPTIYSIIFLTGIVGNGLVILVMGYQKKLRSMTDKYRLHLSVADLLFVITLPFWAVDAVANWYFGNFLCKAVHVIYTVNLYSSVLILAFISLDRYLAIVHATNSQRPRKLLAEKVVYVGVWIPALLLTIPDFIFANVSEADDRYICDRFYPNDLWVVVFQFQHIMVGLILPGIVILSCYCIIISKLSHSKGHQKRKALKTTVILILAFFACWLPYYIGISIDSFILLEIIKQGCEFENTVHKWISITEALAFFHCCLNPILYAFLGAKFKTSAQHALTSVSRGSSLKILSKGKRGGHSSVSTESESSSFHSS", "assay": "FRET or BRET", "conditions": "remark: other sources report otherwise"}, "[2]": {"molecular_target": "T1, human chemokine receptor CXCR4 fused to …", "assay": "FRET or BRET", "conditions": "remark: other sources report otherwise"}},
  "data": [
    {"binder": "human chemokine receptor CXCR4 fused to the N-terminus of GFP or TagRFP, P61073 1-352 (receptor) MEGISIYTSDNYTEEMGSGDYDSMKEPCFREENANFNKIFLPTIYSIIFLTGIVGNGLVILVMGYQKKLRSMTDKYRLHLSVADLLFVITLPFWAVDAVANWYFGNFLCKAVHVIYTVNLYSSVLILAFISLDRYLAIVHATNSQRPRKLLAEKVVYVGVWIPALLLTIPDFIFANVSEADDRYICDRFYPNDLWVVVFQFQHIMVGLILPGIVILSCYCIIISKLSHSKGHQKRKALKTTVILILAFFACWLPYYIGISIDSFILLEIIKQGCEFENTVHKWISITEALAFFHCCLNPILYAFLGAKFKTSAQHALTSVSRGSSLKILSKGKRGGHSSVSTESESSSFHSS", "values": [
      {"measurement": "FRET efficiency", "setting": "[1]", "value": 10.4, "unit": "%"},
      {"measurement": "FRET efficiency", "setting": "[2]", "value": 10.9, "unit": "%"}
    ]}
  ]
}
